Laboratory results taken from patent publication US20250262210A1 (TRUSTEES OF COLUMBIA UNIVERSITY IN THE CITY OF NEW YORK, published 2025).

Assays:
Assay in all cases: IP/MS, LZTR1 R810W-FLAG, U87
STK11IP = target: T1, STK11IP (human, UniProt Q8N1F8 1-1088)
T1 sequence (looked up): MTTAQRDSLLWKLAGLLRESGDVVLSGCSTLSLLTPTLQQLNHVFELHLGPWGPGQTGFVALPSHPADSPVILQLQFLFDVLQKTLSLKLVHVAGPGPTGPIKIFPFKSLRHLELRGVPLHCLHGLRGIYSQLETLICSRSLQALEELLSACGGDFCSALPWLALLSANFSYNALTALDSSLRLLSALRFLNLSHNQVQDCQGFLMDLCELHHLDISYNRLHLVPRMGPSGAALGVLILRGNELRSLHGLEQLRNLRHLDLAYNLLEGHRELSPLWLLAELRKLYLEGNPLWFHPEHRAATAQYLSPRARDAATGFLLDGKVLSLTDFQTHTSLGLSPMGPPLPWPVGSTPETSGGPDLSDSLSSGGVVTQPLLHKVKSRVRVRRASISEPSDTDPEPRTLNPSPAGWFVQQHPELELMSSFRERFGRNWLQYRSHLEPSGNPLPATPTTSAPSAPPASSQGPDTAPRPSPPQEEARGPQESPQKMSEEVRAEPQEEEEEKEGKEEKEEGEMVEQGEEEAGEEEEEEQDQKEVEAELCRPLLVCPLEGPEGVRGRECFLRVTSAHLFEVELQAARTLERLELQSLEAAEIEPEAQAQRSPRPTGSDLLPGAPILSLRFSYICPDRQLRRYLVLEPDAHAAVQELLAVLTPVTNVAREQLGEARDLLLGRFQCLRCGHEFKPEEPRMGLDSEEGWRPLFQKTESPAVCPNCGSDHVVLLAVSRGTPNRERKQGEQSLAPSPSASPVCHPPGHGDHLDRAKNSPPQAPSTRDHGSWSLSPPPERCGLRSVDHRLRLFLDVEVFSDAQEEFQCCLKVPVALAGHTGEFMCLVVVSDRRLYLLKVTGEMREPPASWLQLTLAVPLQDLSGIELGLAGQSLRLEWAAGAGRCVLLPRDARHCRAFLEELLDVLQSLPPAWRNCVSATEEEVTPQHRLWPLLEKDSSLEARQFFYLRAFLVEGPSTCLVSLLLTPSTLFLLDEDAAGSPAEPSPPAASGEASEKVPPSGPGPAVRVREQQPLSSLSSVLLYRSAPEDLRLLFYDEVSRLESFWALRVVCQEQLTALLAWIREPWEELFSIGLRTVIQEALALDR
Procedure, shortened: (§1)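 Gel slices were reduced with 5 mM DTT, alkylated with 11 mM IAA and digested overnight at 37° C. with trypsin. Peptides were analysed on an Orbitrap Fusion Tribrid by LC-MS/MS.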

TTI1 = TTI1 (human, UniProt O43156 1-1089)
Procedure, shortened: as §1

LONP2 = target: T2, LONP2 (human, UniProt Q86WA8 2-852, limits assumed)
T2 sequence (looked up): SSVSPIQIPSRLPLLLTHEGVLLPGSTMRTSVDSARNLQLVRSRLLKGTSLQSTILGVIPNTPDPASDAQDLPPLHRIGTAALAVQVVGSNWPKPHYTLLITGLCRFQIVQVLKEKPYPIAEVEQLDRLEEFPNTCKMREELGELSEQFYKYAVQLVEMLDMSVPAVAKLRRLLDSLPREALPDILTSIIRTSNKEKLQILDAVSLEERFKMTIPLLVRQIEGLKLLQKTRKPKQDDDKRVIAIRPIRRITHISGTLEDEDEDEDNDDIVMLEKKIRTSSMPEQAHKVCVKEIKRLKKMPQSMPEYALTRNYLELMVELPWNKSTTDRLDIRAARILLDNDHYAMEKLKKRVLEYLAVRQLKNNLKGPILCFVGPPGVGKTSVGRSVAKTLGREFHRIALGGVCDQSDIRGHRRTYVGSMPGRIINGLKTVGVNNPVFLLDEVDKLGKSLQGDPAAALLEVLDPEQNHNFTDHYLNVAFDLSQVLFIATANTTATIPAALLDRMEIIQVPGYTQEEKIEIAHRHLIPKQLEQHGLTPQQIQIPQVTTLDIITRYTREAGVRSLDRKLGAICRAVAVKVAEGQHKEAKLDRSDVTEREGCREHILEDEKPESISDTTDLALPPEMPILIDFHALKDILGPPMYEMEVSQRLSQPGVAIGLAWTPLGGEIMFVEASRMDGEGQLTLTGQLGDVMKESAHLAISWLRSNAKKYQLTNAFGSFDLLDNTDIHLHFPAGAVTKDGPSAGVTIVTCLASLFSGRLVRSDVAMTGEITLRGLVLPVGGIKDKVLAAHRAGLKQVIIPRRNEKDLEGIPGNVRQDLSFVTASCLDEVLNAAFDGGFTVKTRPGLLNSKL
Procedure, shortened: as §1

SKIV2L = SKIV2L (human, UniProt Q15477 1-1246)
Procedure, shortened: as §1

ARHGAP31 = ARHGAP31 (human, UniProt Q2M1Z3 1-1444)
Procedure, shortened: as §1

Measured: binding result

Chain of TTI1 (O43156 whole entry): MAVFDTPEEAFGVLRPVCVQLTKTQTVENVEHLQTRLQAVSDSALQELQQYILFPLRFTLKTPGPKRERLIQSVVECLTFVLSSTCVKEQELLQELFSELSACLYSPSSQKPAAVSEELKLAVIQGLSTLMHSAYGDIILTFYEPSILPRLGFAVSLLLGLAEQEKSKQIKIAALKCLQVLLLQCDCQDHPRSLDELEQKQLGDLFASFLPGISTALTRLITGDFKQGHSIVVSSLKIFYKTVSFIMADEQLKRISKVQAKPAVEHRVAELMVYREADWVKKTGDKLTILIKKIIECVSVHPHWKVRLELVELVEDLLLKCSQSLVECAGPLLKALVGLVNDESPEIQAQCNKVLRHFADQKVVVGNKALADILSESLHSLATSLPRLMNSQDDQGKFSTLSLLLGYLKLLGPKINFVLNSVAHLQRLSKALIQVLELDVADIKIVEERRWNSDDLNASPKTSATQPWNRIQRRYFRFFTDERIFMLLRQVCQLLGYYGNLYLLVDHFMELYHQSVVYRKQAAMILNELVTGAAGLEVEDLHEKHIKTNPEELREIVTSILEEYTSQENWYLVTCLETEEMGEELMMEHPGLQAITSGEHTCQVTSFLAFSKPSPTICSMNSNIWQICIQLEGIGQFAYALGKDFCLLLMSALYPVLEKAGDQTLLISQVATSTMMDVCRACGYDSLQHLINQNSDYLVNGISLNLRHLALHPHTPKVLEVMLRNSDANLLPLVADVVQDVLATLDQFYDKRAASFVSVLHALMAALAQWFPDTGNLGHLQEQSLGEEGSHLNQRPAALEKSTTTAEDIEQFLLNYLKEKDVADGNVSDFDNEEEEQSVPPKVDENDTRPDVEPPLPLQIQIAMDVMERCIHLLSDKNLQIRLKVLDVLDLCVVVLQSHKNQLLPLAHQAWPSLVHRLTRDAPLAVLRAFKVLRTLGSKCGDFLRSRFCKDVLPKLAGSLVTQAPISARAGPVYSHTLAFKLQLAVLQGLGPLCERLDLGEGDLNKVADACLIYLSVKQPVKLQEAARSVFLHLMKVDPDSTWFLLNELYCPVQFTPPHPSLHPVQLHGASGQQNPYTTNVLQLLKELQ
Chain of ARHGAP31 (Q2M1Z3 whole entry): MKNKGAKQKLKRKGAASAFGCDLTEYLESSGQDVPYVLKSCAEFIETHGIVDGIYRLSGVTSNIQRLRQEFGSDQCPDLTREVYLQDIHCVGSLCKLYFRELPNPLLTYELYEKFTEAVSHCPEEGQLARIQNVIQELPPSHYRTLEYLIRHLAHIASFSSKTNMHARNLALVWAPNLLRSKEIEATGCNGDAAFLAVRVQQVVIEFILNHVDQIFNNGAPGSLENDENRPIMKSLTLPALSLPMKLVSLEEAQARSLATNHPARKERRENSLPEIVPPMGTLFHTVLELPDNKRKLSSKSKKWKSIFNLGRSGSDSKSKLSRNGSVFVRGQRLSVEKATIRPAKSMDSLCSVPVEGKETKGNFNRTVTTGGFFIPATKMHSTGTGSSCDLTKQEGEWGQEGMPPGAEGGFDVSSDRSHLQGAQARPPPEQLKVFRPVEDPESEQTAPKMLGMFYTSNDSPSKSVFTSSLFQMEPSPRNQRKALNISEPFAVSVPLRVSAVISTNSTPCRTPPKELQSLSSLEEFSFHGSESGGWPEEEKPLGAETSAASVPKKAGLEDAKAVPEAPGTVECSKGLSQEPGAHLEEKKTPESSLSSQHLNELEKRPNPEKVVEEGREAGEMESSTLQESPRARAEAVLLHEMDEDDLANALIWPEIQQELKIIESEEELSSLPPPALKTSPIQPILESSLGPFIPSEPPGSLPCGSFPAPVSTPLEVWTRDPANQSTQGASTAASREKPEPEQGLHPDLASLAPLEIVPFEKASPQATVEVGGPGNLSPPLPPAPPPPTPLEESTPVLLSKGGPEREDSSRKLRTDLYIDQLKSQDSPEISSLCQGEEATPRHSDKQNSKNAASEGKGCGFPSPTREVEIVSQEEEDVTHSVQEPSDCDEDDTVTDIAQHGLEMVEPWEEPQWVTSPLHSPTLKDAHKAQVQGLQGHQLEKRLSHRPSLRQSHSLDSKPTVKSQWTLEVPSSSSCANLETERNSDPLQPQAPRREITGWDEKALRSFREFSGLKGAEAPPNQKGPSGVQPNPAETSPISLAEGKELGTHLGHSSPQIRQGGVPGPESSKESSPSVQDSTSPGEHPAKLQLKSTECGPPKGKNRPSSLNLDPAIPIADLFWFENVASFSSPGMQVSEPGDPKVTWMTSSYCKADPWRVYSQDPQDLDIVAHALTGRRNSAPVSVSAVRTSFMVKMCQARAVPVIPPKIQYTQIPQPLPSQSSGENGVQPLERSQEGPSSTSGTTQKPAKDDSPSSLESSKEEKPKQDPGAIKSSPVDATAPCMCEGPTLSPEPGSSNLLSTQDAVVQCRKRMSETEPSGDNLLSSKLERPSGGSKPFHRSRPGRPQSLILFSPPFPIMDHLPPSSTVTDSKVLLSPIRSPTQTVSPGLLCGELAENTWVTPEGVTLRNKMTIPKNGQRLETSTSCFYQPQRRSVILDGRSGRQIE
Chain of SKIV2L (Q15477 whole entry): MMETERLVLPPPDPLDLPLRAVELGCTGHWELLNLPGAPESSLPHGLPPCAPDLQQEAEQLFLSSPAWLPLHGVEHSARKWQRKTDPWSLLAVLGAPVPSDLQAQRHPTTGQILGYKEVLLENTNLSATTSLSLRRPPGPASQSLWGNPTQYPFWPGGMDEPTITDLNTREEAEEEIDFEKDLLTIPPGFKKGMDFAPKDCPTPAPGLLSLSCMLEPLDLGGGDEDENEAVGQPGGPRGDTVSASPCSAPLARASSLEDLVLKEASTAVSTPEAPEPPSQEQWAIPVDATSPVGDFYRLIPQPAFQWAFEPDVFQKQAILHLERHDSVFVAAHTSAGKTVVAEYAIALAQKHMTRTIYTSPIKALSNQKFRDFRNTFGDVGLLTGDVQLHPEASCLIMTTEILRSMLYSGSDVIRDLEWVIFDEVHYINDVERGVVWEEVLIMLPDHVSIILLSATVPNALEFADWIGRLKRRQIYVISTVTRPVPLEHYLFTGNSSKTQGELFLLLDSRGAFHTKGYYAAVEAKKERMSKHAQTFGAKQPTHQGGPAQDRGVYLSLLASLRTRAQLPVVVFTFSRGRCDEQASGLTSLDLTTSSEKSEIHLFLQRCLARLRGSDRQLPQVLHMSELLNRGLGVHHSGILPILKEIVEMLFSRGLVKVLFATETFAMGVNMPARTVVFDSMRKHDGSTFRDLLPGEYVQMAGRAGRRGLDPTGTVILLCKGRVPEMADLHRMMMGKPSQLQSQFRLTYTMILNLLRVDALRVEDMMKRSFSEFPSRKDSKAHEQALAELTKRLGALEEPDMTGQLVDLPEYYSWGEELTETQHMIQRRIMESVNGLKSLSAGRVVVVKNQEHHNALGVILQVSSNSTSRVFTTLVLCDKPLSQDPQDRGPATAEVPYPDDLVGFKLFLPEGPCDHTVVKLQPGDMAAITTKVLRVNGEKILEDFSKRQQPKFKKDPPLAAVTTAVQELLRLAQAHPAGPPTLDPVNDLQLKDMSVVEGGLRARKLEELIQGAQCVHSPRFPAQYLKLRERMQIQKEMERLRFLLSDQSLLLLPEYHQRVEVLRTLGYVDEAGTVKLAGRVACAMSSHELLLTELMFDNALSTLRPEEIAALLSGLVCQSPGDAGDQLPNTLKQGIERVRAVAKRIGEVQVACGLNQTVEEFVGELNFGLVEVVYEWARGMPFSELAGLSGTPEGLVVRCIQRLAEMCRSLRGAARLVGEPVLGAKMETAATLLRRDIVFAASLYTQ

B1: LZTR1 R810W-FLAG (other, human, UniProt Q8N653 1-840, looked up)
chain: MAGPGSTGGQIGAAALAGGARSKVAPSVDFDHSCSDSVEYLTLNFGPFETVHRWRRLPPCDEFVGARRSKHTVVAYKDAIYVFGGDNGKTMLNDLLRFDVKDCSWCRAFTTGTPPAPRYHHSAVVYGSSMFVFGGYTGDIYSNSNLKNKNDLFEYKFATGQWTEWKIEGRLPVARSAHGATVYSDKLWIFAGYDGNARLNDMWTIGLQDRELTCWEEVAQSGEIPPSCCNFPVAVCRDKMFVFSGQSGAKITNNLFQFEFKDKTWTRIPTEHLLRGSPPPPQRRYGHTMVAFDRHLYVFGGAADNTLPNELHCYDVDFQTWEVVQPSSDSEVGGAEVPERACASEEVPTLTYEERVGFKKSRDVFGLDFGTTSAKQPTQPASELPSGRLFHAAAVISDAMYIFGGTVDNNIRSGEMYRFQFSCYPKCTLHEDYGRLWESRQFCDVEFVLGEKEECVQGHVAIVTARSRWLRRKITQARERLAQKLEQEAAPVPREAPGVAAGGARPPLLHVAIREAEARPFEVLMQFLYTDKIKYPRKGHVEDVLLIMDVYKLALSFQLCRLEQLCRQYIEASVDLQNVLVVCESAARLQLSQLKEHCLNFVVKESHFNQVIMMKEFERLSSPLIVEIVRRKQQPPPRTPLDQPVDIGTSLIQDMKAYLEGAGAEFCDITLLLDGHPRPAHKAILAARSSYFEAMFRSFMPEDGQVNISIGEMVPSRQAFESMLRYIYYGEVNMPPEDSLYLFAAPYYYGFYNNRLQAYCKQNLEMNVTVQNVLQILEAADKTQALDMKRHCLHIIVHQFTKVSKLPTLWSLSQQLLLDIIDSLASHISDKQCAELGADI
notes: Stably expressed in U87 cells by lentivirus; also called LZTR1-FLAG-R810W; LZTR1 RW; not shown: FLAG tag
binds: all assays above
